Measurements: the RNAGym collection of RNA variant scans (doi:10.1101/gr.219683.116)

B1: mRNA-splicing (parent)
chain: AGUUGCUGCUGGGAGCUCCAGCACAGUGAAAUGGACAGAAGGGCAGAGCAA

Variants of: B1
Assay: exon inclusion enrichment index; higher = more inclusion; WT1 exon 5 minigene, HEK293

Row | Variant | exon inclusion enrichment index
1 | AGUUACGGAUGGGAGCUCCAGCACAGUGAAAUGGACAGAAGGGCAGAGCAA | 1.5
2 | AGUUCAAGCAGGGAGCUCCAGCACAGUGAAAUGGACAGAAGGGCAGAGCAA | 0.407
3 | AGUUCAAGCCGGGAGCUCCAGCACAGUGAAAUGGACAGAAGGGCAGAGCAA | 3.35
4 | AGUUCACGUAGGGAGCUCCAGCACAGUGAAAUGGACAGAAGGGCAGAGCAA | 0.0237
5 | AGUUCAAGAAGGGAGCUCCAGCACAGUGAAAUGGACAGAAGGGCAGAGCAA | 0.906
6 | AGUUCACAUAGGGAGCUCCAGCACAGUGAAAUGGACAGAAGGGCAGAGCAA | 0.0185
7 | AGUUCACAUCGGGAGCUCCAGCACAGUGAAAUGGACAGAAGGGCAGAGCAA | 2.03
8 | AGUUCACAUGGGGAGCUCCAGCACAGUGAAAUGGACAGAAGGGCAGAGCAA | 0.525
9 | AGUUCACACAGGGAGCUCCCCCACAGUGAAAUGGACAGAAGGGCAGAGCAA | 0.00894
10 | AGUUCACACAGGGAGCUCCCUCACAGUGAAAUGGACAGAAGGGCAGAGCAA | 0.0192
11 | AGUUCACACAGGGAGCUCCCACACAGUGAAAUGGACAGAAGGGCAGAGCAA | 0.0158
12 | AGUUACGCCCGGGAGCUCCAGCACAGUGAAAUGGACAGAAGGGCAGAGCAA | 2.13
13 | AGUUCACACAGGGAGCUCCAGCACGUUGAAAUGGACAGAAGGGCAGAGCAA | 0.306
14 | AGUUCACACAGGGAGCUCCAGCACGCUGAAAUGGACAGAAGGGCAGAGCAA | 0.647
15 | AGUUCACACAGGGAGCUCCAGCACGAUGAAAUGGACAGAAGGGCAGAGCAA | 0.663
16 | AGUUCAACUCGGGAGCUCCAGCACAGUGAAAUGGACAGAAGGGCAGAGCAA | 2.04
17 | AGUUCACACAGGGAGCUCCAGCACUCUGAAAUGGACAGAAGGGCAGAGCAA | 0.181
18 | AGUUCACACAGGGAGCUCCAGCACUUUGAAAUGGACAGAAGGGCAGAGCAA | 0.111
19 | AGUUCACACAGGGAGCUCCAGCACUAUGAAAUGGACAGAAGGGCAGAGCAA | 0.172
20 | AGUUCACACAGGGAGCUCCAGCACAGUGAAAUGGACAGAAGGGCAGAGCAA | 0.12
21 | AGUUCCUGCUGGGAGCUCCAGCACAGUGAAAUGGACAGAAGGGCAGAGCAA | 0.147
22 | AGUUCAAUCAGGGAGCUCCAGCACAGUGAAAUGGACAGAAGGGCAGAGCAA | 0.0878
23 | AGUUACCUGCGGGAGCUCCAGCACAGUGAAAUGGACAGAAGGGCAGAGCAA | 1.91
24 | AGUUACCCGCGGGAGCUCCAGCACAGUGAAAUGGACAGAAGGGCAGAGCAA | 1.58
25 | AGUUACCGCCGGGAGCUCCAGCACAGUGAAAUGGACAGAAGGGCAGAGCAA | 4.21
26 | AGUUCACACAGGGGUCUCCAGCACAGUGAAAUGGACAGAAGGGCAGAGCAA | 0.0158

Row | Variant | exon inclusion enrichment index
27 | AGUUCACACAGGGGCCUCCAGCACAGUGAAAUGGACAGAAGGGCAGAGCAA | 0.0391
28 | AGUUCACACAGGGGACUCCAGCACAGUGAAAUGGACAGAAGGGCAGAGCAA | 0.119
29 | AGUUACCCUCGGGAGCUCCAGCACAGUGAAAUGGACAGAAGGGCAGAGCAA | 1.27
30 | AGUUCAUUCAGGGAGCUCCAGCACAGUGAAAUGGACAGAAGGGCAGAGCAA | 0.0451
31 | AGUUCACACUGGGAGCUCCAGCACAGUGAAAUGGACAGAAGGGCAGAGCAA | 0.613
32 | AGUUCACACAGGGAGCUCCGACACAGUGAAAUGGACAGAAGGGCAGAGCAA | 0.186
33 | AGUUCACACAGGGAGCUCCGUCACAGUGAAAUGGACAGAAGGGCAGAGCAA | 0.177
34 | AGUUCACACAGGGAGCUCCGCCACAGUGAAAUGGACAGAAGGGCAGAGCAA | 0.164
35 | AGUUCACACAGGGAGCUCCAGCUCAGUGAAAUGGACAGAAGGGCAGAGCAA | 0.0425
36 | AGUUCACACAGGGAGCUCCAGCGCAGUGAAAUGGACAGAAGGGCAGAGCAA | 0.287
37 | AGUUCACACAGGGAGCUCCAGCCCAGUGAAAUGGACAGAAGGGCAGAGCAA | 0.0903
38 | AGUUCACACUCGGAGCUCCAGCACAGUGAAAUGGACAGAAGGGCAGAGCAA | 1.01
39 | AGUUCACACUUGGAGCUCCAGCACAGUGAAAUGGACAGAAGGGCAGAGCAA | 0.768
40 | AGUUCACACUAGGAGCUCCAGCACAGUGAAAUGGACAGAAGGGCAGAGCAA | 0.126
41 | AGUUACCUAUGGGAGCUCCAGCACAGUGAAAUGGACAGAAGGGCAGAGCAA | 0.658
42 | AGUUCACAACGGGAGCUCCAGCACAGUGAAAUGGACAGAAGGGCAGAGCAA | 1.81
43 | AGUUCACAAGGGGAGCUCCAGCACAGUGAAAUGGACAGAAGGGCAGAGCAA | 0.428
44 | AGUUCACAAAGGGAGCUCCAGCACAGUGAAAUGGACAGAAGGGCAGAGCAA | 0.239
45 | AGUUACCUUCGGGAGCUCCAGCACAGUGAAAUGGACAGAAGGGCAGAGCAA | 1.17
46 | AGUUCACACAGGGAGCUCCAGCGUAGUGAAAUGGACAGAAGGGCAGAGCAA | 0.0154
47 | AGUUCACACAGGGAGCUCCAGCGAAGUGAAAUGGACAGAAGGGCAGAGCAA | 0.48
48 | AGUUCACACAGGGAGCUCCAGCGGAGUGAAAUGGACAGAAGGGCAGAGCAA | 0.559
49 | AGUUCACACAGGGAGCUCCCGCACAGUGAAAUGGACAGAAGGGCAGAGCAA | 0.142
50 | AGUUCACACAGGGAGCUCCUGCACAGUGAAAUGGACAGAAGGGCAGAGCAA | 0.199
51 | AGUUCACACAGGGAGCUCCGGCACAGUGAAAUGGACAGAAGGGCAGAGCAA | 0.306
52 | AGUUCACAGCGGGAGCUCCAGCACAGUGAAAUGGACAGAAGGGCAGAGCAA | 1.42

Row | Variant | exon inclusion enrichment index
53 | AGUUCACAGGGGGAGCUCCAGCACAGUGAAAUGGACAGAAGGGCAGAGCAA | 0.11
54 | AGUUCACAGAGGGAGCUCCAGCACAGUGAAAUGGACAGAAGGGCAGAGCAA | 0.545
55 | AGUUACUGCCGGGAGCUCCAGCACAGUGAAAUGGACAGAAGGGCAGAGCAA | 2.01
56 | AGUUCACACAGGGAGCUCCUUCACAGUGAAAUGGACAGAAGGGCAGAGCAA | 0.037
57 | AGUUCACACAGGGAGCUCCUCCACAGUGAAAUGGACAGAAGGGCAGAGCAA | 0.0942
58 | AGUUCACACAGGGAGCUCCUACACAGUGAAAUGGACAGAAGGGCAGAGCAA | 0.0323
59 | AGUUACGUCCGGGAGCUCCAGCACAGUGAAAUGGACAGAAGGGCAGAGCAA | 2.36
60 | AGUUCACACAGGGAGCUCCAGCACGGUGAAAUGGACAGAAGGGCAGAGCAA | 0.601
61 | AGUUCACACAGGGAGCUCCAGCACCGUGAAAUGGACAGAAGGGCAGAGCAA | 0.77
62 | AGUUCACACAGGGAGCUCCAGCACUGUGAAAUGGACAGAAGGGCAGAGCAA | 0.205
63 | AGUUCAUACAGGGAGCUCCAGCACAGUGAAAUGGACAGAAGGGCAGAGCAA | 0.0612
64 | AGUUCACGGAGGGAGCUCCAGCACAGUGAAAUGGACAGAAGGGCAGAGCAA | 1.72
65 | AGUUCAACCAGGGAGCUCCAGCACAGUGAAAUGGACAGAAGGGCAGAGCAA | 0.514
66 | AGUUCAUUUUGGGAGCUCCAGCACAGUGAAAUGGACAGAAGGGCAGAGCAA | 0.42
67 | AGUUCACACAGGGAGCUCCAGCCUAGUGAAAUGGACAGAAGGGCAGAGCAA | 0.0196
68 | AGUUCACACAGGGAGCUCCAGCCGAGUGAAAUGGACAGAAGGGCAGAGCAA | 0.664
69 | AGUUCACACAGGGAGCUCCAGCCAAGUGAAAUGGACAGAAGGGCAGAGCAA | 0.209
70 | AGUUCACAAUGGGAGCUCCAGCACAGUGAAAUGGACAGAAGGGCAGAGCAA | 0.746
71 | AGUUCACAUUGGGAGCUCCAGCACAGUGAAAUGGACAGAAGGGCAGAGCAA | 0.616
72 | AGUUCACAGUGGGAGCUCCAGCACAGUGAAAUGGACAGAAGGGCAGAGCAA | 0.446
73 | AGUUCAUCCAGGGAGCUCCAGCACAGUGAAAUGGACAGAAGGGCAGAGCAA | 0.77
74 | AGUUCACGAAGGGAGCUCCAGCACAGUGAAAUGGACAGAAGGGCAGAGCAA | 0.851
75 | AGUUCACGACGGGAGCUCCAGCACAGUGAAAUGGACAGAAGGGCAGAGCAA | 2.61
76 | AGUUACCCCCGGGAGCUCCAGCACAGUGAAAUGGACAGAAGGGCAGAGCAA | 1.39
77 | AGUUCAUGCUGGGAGCUCCAGCACAGUGAAAUGGACAGAAGGGCAGAGCAA | 0.0337
78 | AGUUACCUACGGGAGCUCCAGCACAGUGAAAUGGACAGAAGGGCAGAGCAA | 1.23

Row | Variant | exon inclusion enrichment index
79 | AGUUCACACAGGGCUCUCCAGCACAGUGAAAUGGACAGAAGGGCAGAGCAA | 0.00827
80 | AGUUCACACAGGGCACUCCAGCACAGUGAAAUGGACAGAAGGGCAGAGCAA | 0.0306
81 | AGUUCACACAGGGCCCUCCAGCACAGUGAAAUGGACAGAAGGGCAGAGCAA | 0.00871
82 | AGUUCACACAGGGAGCUCCAGCUGAGUGAAAUGGACAGAAGGGCAGAGCAA | 0.159
83 | AGUUCACACAGGGAGCUCCAGCUUAGUGAAAUGGACAGAAGGGCAGAGCAA | 0.00309
84 | AGUUCACACAGGGAGCUCCAGCUAAGUGAAAUGGACAGAAGGGCAGAGCAA | 0.0357
85 | AGUUACGUAUGGGAGCUCCAGCACAGUGAAAUGGACAGAAGGGCAGAGCAA | 0.583
86 | AGUUCAUCUCGGGAGCUCCAGCACAGUGAAAUGGACAGAAGGGCAGAGCAA | 2.4
87 | AGUUACCUCCGGGAGCUCCAGCACAGUGAAAUGGACAGAAGGGCAGAGCAA | 1.92
88 | AGUUACGACCGGGAGCUCCAGCACAGUGAAAUGGACAGAAGGGCAGAGCAA | 2.7
89 | AGUUACCACGUGGAGCUCCAGCACAGUGAAAUGGACAGAAGGGCAGAGCAA | 2.44
90 | AGUUACGGCCGGGAGCUCCAGCACAGUGAAAUGGACAGAAGGGCAGAGCAA | 0.936
91 | AGUUACCCACGGGAGCUCCAGCACAGUGAAAUGGACAGAAGGGCAGAGCAA | 1.56
92 | AGUUCACACAGGGUGCUCCAGCACAGUGAAAUGGACAGAAGGGCAGAGCAA | 0.0358
93 | AGUUCACACAGGGGGCUCCAGCACAGUGAAAUGGACAGAAGGGCAGAGCAA | 0.0477
94 | AGUUCACACAGGGCGCUCCAGCACAGUGAAAUGGACAGAAGGGCAGAGCAA | 0.0603
95 | AGUUCACACAGGGAGCUCCAGCACCCUGAAAUGGACAGAAGGGCAGAGCAA | 0.037
96 | AGUUCACACAGGGAGCUCCAGCACCUUGAAAUGGACAGAAGGGCAGAGCAA | 0.241
97 | AGUUCACACAGGGAGCUCCAGCACCAUGAAAUGGACAGAAGGGCAGAGCAA | 0.352
98 | AGUUCAAACAGGGAGCUCCAGCACAGUGAAAUGGACAGAAGGGCAGAGCAA | 0.0993
99 | AGUUCACACAGGGUUCUCCAGCACAGUGAAAUGGACAGAAGGGCAGAGCAA | 0.0233
100 | AGUUCACACAGGGUACUCCAGCACAGUGAAAUGGACAGAAGGGCAGAGCAA | 0.00771
101 | AGUUCACACAGGGUCCUCCAGCACAGUGAAAUGGACAGAAGGGCAGAGCAA | 0.0301
102 | AGUUCAAUAUGGGAGCUCCAGCACAGUGAAAUGGACAGAAGGGCAGAGCAA | 0.415
